Laboratory results taken from PMC7279889, “FMRP promotes RNA localization to neuronal projections through interactions between its RGG domain and G-quadruplex RNA sequences”.

How the values were obtained:
FMRP RGG domain = FMRP RGG domain (Mus musculus, UniProt P35922 478-614); test: fluorescence polarization; 150 mM KCl; FP: 10 mM Tris-HCl (pH not stated), 150 mM KCl or LiCl, 5% glycerol, 10 nM RNA, protein 2 nM-1 uM, 5 min at 25 C, read at 26-27 C; conditions: protein: recombinant; tags: GST-SBP (N-terminal, pGEX6); label: 3' 6-FAM; G4 intramolecular (folded in KCl)
[1] = biological target: FMRP KH domains (two KH domains) (Mus musculus, UniProt P35922 222-315); test: fluorescence polarization; binding never detected; method and salt implied; FP: 10 mM Tris-HCl (pH not stated), 150 mM KCl or LiCl, 5% glycerol, 10 nM RNA, protein 2 nM-1 uM, 5 min at 25 C, read at 26-27 C; conditions: protein: recombinant; tags: GST-SBP (N-terminal, pGEX6); label: 3' 6-FAM; G4 intramolecular (folded in KCl)

Binder: GGGAGGGAGGGAGGGUA (structured_RNA) [rG4]
- Kd (FMRP RGG domain): ~30 nM
- binding result [1]: no binding
